Results: FireProtDB (doi:10.1016/j.jmb.2010.11.028)

B1: Alpha-tocopherol transfer protein, P49638 (parent)
chain: MAEARSQPSAGPQLNALPDHSPLLQPGLAALRRRAREAGVPLAPLPLTDSFLLRFLRARDFDLDLAWRLLKNYYKWRAECPEISADLHPRSIIGLLKAGYHGVLRSRDPTGSKVLIYRIAHWDPKVFTAYDVFRVSLITSELIVQEVETQRNGIKAIFDLEGWQFSHAFQITPSVAKKIAAVLTDSFPLKVRGIHLINEPVIFHAVFSMIKPFLTEKIKERIHMHGNNYKQSLLQHFPDILPLEYGGEEFSMEDICQEWTNFIMKSEDYLSSISESIQ

Variants of: B1
Conditions: Homo sapiens; pH 7.4; Thermal; Fluorescence; Tris 50mM; structure 1R5L; whole UniProt chain shown

Row | Variant | Tm [°C]
1 | M264D | 68.8
2 | F165A | 82.4
3 | F165D | 82.4
4 | F169A | 75.3
5 | I202A | 74.9
6 | I202D | 73.6
7 | M209A | 82.8
8 | M209D | 79.5
9 | V206A | 78.2
10 | V206D | 76
